Key:
[1] = test system: differentiated PC12 cells; assay: Apoptotic cell death in differentiated PC12 cells after NGF withdrawal (cell death ELISA / TUNEL); format: cell-based
RhoA-GTP = RhoA-GTP levels in oligodendrocyte lysates (western blotting); format: cell-based, rat; settings: versus corresponding control, FIG. 9A
Text: A strong candidate signaling pathway that is implicated in the control of oligodendrocyte differentiation is the Rho family of GTPases. Rho GTPases regulate cellular morphology, and reduced RhoA-GTP amounts are required for oligodendrocyte differentiation. See Liang, X, et al., J. Neurosci. 24:7140-7149 (2004). To determine whether Sp35 signals through the RhoA pathway, RhoAGTP levels in cell lysates of oligodendrocytes treated with Sp35-Fc were compared with levels in the corresponding control via western blotting.

Caspase-3 = Caspase-3 activation in differentiated PC12 cells after NGF withdrawal (Caspase 3/7 Glo); format: cell-based; settings: 18 hours after removal of NGF
Experimental: PC 12 cells (Neuroscreen) were differentiated in RPMI-1640 medium supplemented with 5% fetal bovine serum, 10% horse serum, 2 mM glutamine, 100 U/ml penicillin and […] streptomycin containing 200 ng/ml NGF for 7 days. For experiments, the culture media was replaced with NGF-free culture media containing Sp35-Fc, human IgG as a negative control (0.1-10 μM), or zVAD as a positive control (0.1 μM). 18 hours after NGF withdrawal, activated Caspase-3 was quantified using the Caspase 3/7 Glo kit (Promega) according to the manufacturer's instructions. 42 hours after NGF withdrawal, apoptotic cell death was quantified using a cell death detection ELISA kit (Roche) according to the manufacturer's instructions.

[2] = test system: co-cultures of dorsal root ganglion (DRG) neurons and oligodendrocytes; assay: Myelination in co-cultures of DRG neurons and oligodendrocytes; format: cell-based, rat
Experimental: The role of Sp35 in myelination was examined in vitro by treating co-cultures of dorsal root ganglion (DRG) neurons and oligodendrocytes with Sp35-Fc and testing for myelination by immunohistochemistry and electron microscopy. For these studies, it was necessary to first generate primary cultures of DRG neurons and of oligodendrocytes.
Female Long Evans rat E14-E17 embryonic dorsal root ganglia were cultured as described by Plant et al., J. Neurosci. 22:6083-91 (2002). Dissected DRGs were plated on poly-L-lysine-coated cover slips (100 μg/ml) for 2 weeks in the presence of fluorodeoxyuridine for days 2-6 and days 8-11 in NLA medium containing 1×B27, 100 ng/ml NGF (Invitrogen).
A2B5^+ oligodendrocytes were prepared as described in Example 1, and were harvested by trypsinization.
For coculture studies, A2B5^+ oligodendrocytes were added to DRG neuron drop cultures in the presence or absence of 10 μg/ml Sp35-Fc. The culture medium (Neurobasal medium supplemented with B27 and 100 ng/ml NGF) was changed, and fresh Sp35-Fc was added to the cells every 3 d. To identify changes in myelination, 2-week-old cultures were stained by immunohistochemical staining (“IHC”) for neurofilaments with anti-βIII-tubulin antibody to identify axons, or anti-MBP antibody to identify oligodendrocytes., and 4-week-old cultures were subjected to SDS-PAGE followed by western blot analyses to quantify the MBP. In selected examples, cells were fixed for electron microscopy studies by adding 2.5% gluteraldehyde directly onto the cover slips. Myelinated axons in the 2-week-old cultures were quantified by counting the number of myelinated internode bundles that were derived from single MBP^+ oligodendrocytes. Samples were analyzed in duplicate. Error bars denote individual determinations. P values in all studies were determined using a one-way analysis of variance. […]
We performed experiments to address the relative contributions to the myelination process of Sp35 in DRG neurons as compared to oligodendrocytes. We infected DRG neurons, oligodendrocytes and co-cultures (prepared as described in Example 5) with the FL-Sp35 and DN-Sp35 lentiviral vectors described in Example 1 and performed immunohistochemical straining for myelinated MBP^+ cells after two weeks. A 2-fold increase in MBP levels in co-cultures where both cells express DN-Sp35 and a 2-fold decrease in MBP levels in co-cultures where both cells express FL-Sp35 was observed (FIG. 10G).

cuprizone-treated mice = assay: Cuprizone demyelination model, stereotactic injection into corpus callosum; format: in vivo; settings: injected at 2, 2.5 and 3 weeks of cuprizone feeding
Text: Adult wild-type C57B1/6 male mice were fed cuprizone (0.2% milled with ground mouse chow by weight) for 6 weeks to induce demyelination within the corpus callosum. Sp35-Fc was stereotactically injected into the demyelinating corpus callosum at 2, 2.5, and 3 weeks of cuprizone feeding. Control mice were stereotactically injected at the same intervals with sterilized media containing no Sp35-Fc. After 6 weeks of cuprizone feeding, the mice were returned to a normal diet for 2, 4 and 6 weeks (ground mouse chow only) to allow remyelination.
The cuprizone-treated mice were anesthetized with ketamine (80 mg/kg body weight) and xylazine (10 mg/kg body weight) and positioned in an immobilization apparatus designed for stereotactic surgery (David Kopf Instruments). The scalp was opened and the sterile compounds injected (1 μM in […] of HBSS) unilaterally into the acutely demyelinated corpus callosum of the wild-type recipient mice with a […] Hamilton syringe using stereotactic coordinates of 0.7 mm posterior and 0.3 mm lateral to bregrna at a depth of 1.7 mm (Messier et al., Pharmacol. Biochem. Behav. 63(2): 313-18 (1999)). Additionally, control recipient mice were stereotactically injected with HBSS containing no compounds. The opening in the skull was filled with Gelfoam, and the area was swabbed with penicillin and streptomycin (Gibco) and the wound was sutured. […]

mature oligodendrocytes = assay: Mature oligodendrocyte survival and MBP expression; format: cell-based, rat
Experimental: Mature oligodendrocytes have a half-life in vitro of about 48 to 72 hours, with cells typically undergoing apoptosis after 72 hours. […] MBP expression was monitored as a marker for mature ologodendrocytes.

B1: Sp35-Fc: extra-cellular portion of human Sp35 (residues 1-532) fused to the hinge and Fc region of human IgG1 (protein)
chain: TGCPPRCECSAQDRAVLCHRKRFVAVPEGIPTETRLLDLGKNRIKTLNQDEFASFPHLEELELNENIVSAVEPGAFNNLFNLRTLGLRSNRLKLIPLGVFTGLSNLTKLDISENKIVILLDYMFQDLYNLKSLEVGDNDLVYISHRAFSGLNSLEQLTLEKCNLTSIPTEALSHLHGLIVLRLRHLNINAIRDYSFKRLYRLKVLEISHWPYLDTMTPNCLYGLNLTSLSITHCNLTAVPYLAVRHLVYLRFLNLSYNPISTIEGSMLHELLRLQEIQLVGGQLAVVEPYAFRGLNYLRVLNVSGNQLTTLEESVFHSVGNLETLILDSNPLACDCRLLWVFRRRWRLNFNRQQPTCATPEFVQGKEFKDFPDVLLPNYFTCRRARIRDRKAQQVFVDEGHTVQFVCRADGDPPPAILWLSPRKHLVSAKSNGRLTVFPDGTLEVRYAQVQDNGTYLCIAANAGGNDSMPAHLHVRSYSPDWPHQPNKTFAFISNQPGE
modifications: left off: a dimerising Fc or GST
notes: extra-cellular portion of human Sp35 (residues 1-532) fused to the hinge and Fc region of human IgG1
- cells undergoing apoptosis (TUNEL assay) ([1]; 18 hours after NGF withdrawal, versus control, FIG. 13 legend): fewer cells undergoing apoptosis
- cell death (TUNEL ELISA) ([1]; 42 hours after withdrawal of NGF, FIG. 13): significantly reduced cell death
- reduction in RhoA-GTP (RhoA-GTP): threefold reduction
- Caspase-3 activation (Caspase-3; 0.1 μM): reduced Caspase-3 activation
- Caspase-3 activation compared with zVAD (0.1 μM) (Caspase-3; 1 or 10 μM, dose-dependent, FIG. 14): as effective as a neuroprotective dose of the caspase inhibitor zVAD
- internodes and nodes of Ranvier by electron microscopy ([2]; 4-week co-cultures, FIG. 10C): Multiple wellformed internodes were observed
- expression of MBP (western blot) ([2]; 4-week-old treated co-cultures, anti-MBP antibody): increased
- effect on myelination when both cell types overexpress DN-Sp35 ([2]; exogenously added): slight effects
- effect on myelination when either cell type overexpresses DN-Sp35 alone ([2]; exogenously added): further enhanced myelination
- effect on inhibition of myelination by overexpression of FL-Sp35 ([2]; exogenously added, FL-Sp35 in either or both cell types): reversed the inhibition of myelination
- axonal myelination (MBP+ myelinated axons) ([2]; treatment for 2 weeks, dose-dependent, FIG. 10A): robust axonal myelination
- axon myelination by IHC using anti-MBP protein antibody or luxol fast blue (cuprizone-treated mice): increased
- mature oligodendrocyte survival (CC1 antibody staining) (cuprizone-treated mice; FIG. 12): increased mature oligodendrocyte survival
- survival rate for mature oligodendrocytes (mature oligodendrocytes; 10 μg/ml for 5 days, cell viability staining, versus control-Fc): significantly increased survival rate
- increase in MBP protein expression (mature oligodendrocytes; cell staining and Western blot with anti-MBP antibody, versus control-Fc treated cells): approximately 3 fold

Reference: patent US20090175872A1, “Treatment of Conditions Involving Demyelination” (BIOGEN Idec MA Inc., priority 2005, published 2009)
